Assay results as given in US20040018971A1 (published 2004).

B1: Her2/neu.998.F1I11 (peptide)
peptide: FPLDSTFYRSI
notes: 11-mer analog of the HER2/neu peptide starting at position 998
B2: Her2/neu.998.F1 (peptide)
peptide: FPLDSTFYRSL
notes: as for B1
B3: Her2/neu.1157.F1I11 (peptide)
peptide: FPAARPAGATI
notes: 11-mer analog of the HER2/neu peptide starting at position 1157
B4: Her2/neu.1157.F1 (peptide)
peptide: FPAARPAGATL
notes: as for B3
B5: Her2/neu.1151.F1I10 (peptide)
peptide: FPREGPLPAI
notes: 10-mer analog of the HER2/neu peptide starting at position 1151
B6: Her2/neu.995.F1 (peptide)
peptide: FPASPLDSTF
notes: 10-mer analog of the HER2/neu peptide starting at position 995
B7: Her2/neu.1155.F1I9 (peptide)
peptide: FPLPAARPI
notes: 9-mer analog of the HER2/neu peptide starting at position 1155
B8: Her2/neu.1073.F1I9 (peptide)
peptide: FPLAPSEGI
notes: 9-mer analog of the HER2/neu peptide starting at position 1073
B9: Her2/neu.921.F1I11 (peptide)
peptide: FPYDGIPAREI
notes: 11-mer B7 supermotif analog of the HER2/neu peptide starting at position 921
B10: HER2/neu peptide, position 725, 10 amino acids (peptide)
peptide: VLGSGAFGTV
notes: Synthetic peptide; also called HER2/neu 725-734
B11: HER2/neu peptide, position 402, 9 amino acids (peptide)
peptide: TLEEITGYL
notes: Synthetic peptide; also called HER2/neu 402-410
B12: HER2/neu peptide, position 452, 10 amino acids (peptide)
peptide: WLGLRSLREL
notes: Synthetic peptide; also called HER2/neu 452-461
B13: HER2/neu peptide, position 665, 10 amino acids (peptide)
peptide: VVLGVVFGIL
notes: Synthetic peptide; also called HER2/neu 665-674
B14: HER2/neu peptide, position 666, 9 amino acids (peptide)
peptide: VLGVVFGIL
notes: Synthetic peptide; also called HER2/neu 666-674
B15: HER2/neu peptide, position 1172, 10 amino acids (peptide)
peptide: TLSPGKNGVV
notes: Synthetic peptide; also called HER2/neu 1172-1181
B16: HER2/neu peptide, position 1196, 9 amino acids (peptide)
peptide: YLTPQGGAA
notes: Synthetic peptide; also called HER2/neu 1196-1204
B17: HER2/neu peptide, position 478, 10 amino acids (peptide)
peptide: HTVPWDQLFR
notes: Synthetic peptide; also called Her2/neu.478
B18: HER2/neu peptide, position 42, 9 amino acids (peptide)
peptide: HLDMLRHLY
notes: Synthetic peptide; also called Her2/neu.42
B19: HER2/neu peptide, position 167, 9 amino acids (peptide)
peptide: ILWKDIFHK
notes: Synthetic peptide; also called Her2/neu.167
B20: HER2/neu peptide, position 745, 9 amino acids (peptide)
peptide: NVKIPVAIK
notes: Synthetic peptide; also called Her2/neu.745 (9-mer)
B21: HER2/neu peptide, position 1014, 10 amino acids (peptide)
peptide: MGDLVDAEEY
notes: Synthetic peptide; also called Her2/neu.1014 (10-mer)
B22: HER2/neu peptide, position 915, 9 amino acids (peptide)
peptide: LMTFGAKPY
notes: Synthetic peptide; also called Her2/neu.915 (9-mer)
B23: HER2/neu peptide, position 960, 9 amino acids (peptide)
peptide: MIDSECRPR
notes: Synthetic peptide; also called Her2/neu.960 (9-mer)
B24: HER2/neu peptide, position 674, 10 amino acids (peptide)
peptide: LIKRRQQKIR
notes: Synthetic peptide; also called Her2/neu.674 (10-mer)
B25: HER2/neu peptide, position 181, 10 amino acids (peptide)
peptide: LTLIDTNRSR
notes: Synthetic peptide; also called Her2/neu.181 (10-mer)
B26: HER2/neu peptide, position 726, 10 amino acids (peptide)
peptide: LGSGAFGTVY
notes: Synthetic peptide; also called Her2/neu.726 (10-mer)
B27: HER2/neu peptide, position 360, 10 amino acids (peptide)
peptide: NIQEFAGCKK
notes: Synthetic peptide; also called Her2/neu.360 (10-mer)
B28: HER2/neu peptide, position 154, 10 amino acids (peptide)
peptide: LIQRNPQLCY
notes: Synthetic peptide; also called Her2/neu.154 (10-mer)
B29: HER2/neu peptide, position 841, 9 amino acids (peptide)
peptide: LVHRDLAAR
notes: Synthetic peptide; also called Her2/neu.841 (9-mer)
B30: HER2/neu peptide, position 360, 9 amino acids (peptide)
peptide: NIQEFAGCK
notes: Synthetic peptide; also called Her2/neu.360 (9-mer)

biological target: HLA-B*0702 (human); test: competition vs 125I-labelled probe peptide, purified HLA, gel filtration

Binder | IC50 [nM]
B1 | 229
B2 | 42
B3 | 39
B4 | 3.9
FPTHDPSPI [Her2/neu.1101.F1I9] | 108
B5 | 20
B6 | 3.7
B7 | 6.5
B8 | 100
FPSETDGYI [Her2/neu.1120.F1I9] | 220
FPSETDGYV [Her2/neu.1120.F1] | 204
B9 | 141

biological target: HLA-B*3501 (human); test: as above

Binder | IC50 [nM]
B1 | 2670
B2 | 400
B3 | 4240
B4 | 360
FPTHDPSPI [Her2/neu.1101.F1I9] | 600
B5 | 7200
B6 | 10
B7 | 600
B8 | 554
FPSETDGYI [Her2/neu.1120.F1I9] | 655
FPSETDGYV [Her2/neu.1120.F1] | 809
B9 | 2880

biological target: HLA-B*5101 (human); test: as above

Binder | IC50 [nM]
B1 | 46
B2 | 324
B3 | 13
B4 | 239
FPTHDPSPI [Her2/neu.1101.F1I9] | 56
B5 | 20
B6 | 579
B7 | 7.1
B8 | 204
FPSETDGYI [Her2/neu.1120.F1I9] | 31
FPSETDGYV [Her2/neu.1120.F1] | 32
B9 | 50

biological target: HLA-B*5301 (human); test: as above

Binder | IC50 [nM]
B1 | 620
B2 | 1190
B3 | 332
B4 | 2910
FPTHDPSPI [Her2/neu.1101.F1I9] | 274
B5 | 620
B6 | 10
B7 | 282
B8 | 239
FPSETDGYI [Her2/neu.1120.F1I9] | 37
FPSETDGYV [Her2/neu.1120.F1] | 517
B9 | 465

biological target: HLA-B*5401 (human); test: as above

Binder | IC50 [nM]
B1 | 2.4
B2 | 2.7
B3 | 50
FPTHDPSPI [Her2/neu.1101.F1I9] | 50
B5 | 3.4
B6 | 200
B7 | 3.8
B8 | 5.9
FPSETDGYI [Her2/neu.1120.F1I9] | 156
FPSETDGYV [Her2/neu.1120.F1] | 26
B9 | 15

biological target: T1, HLA-A*0201 (human); test: inhibition of 125I-labelled probe peptide binding to purified HLA, gel filtration
T1 construct: also called HLA-A2.1

Binder | relative binding ratio
B10 | 0.0007 ratio (IC50 of standard peptide / IC50 of test peptide)
VLQGLPREYV (Synthetic peptide) [HER2/neu peptide, position 546, 10 amino acids] | 0.0009 ratio (IC50 of standard peptide / IC50 of test peptide)
VVGILLVVV (Synthetic peptide) [HER2/neu peptide, position 658, 9 amino acids] | 0.0005 ratio (IC50 of standard peptide / IC50 of test peptide)
YISAWPDSL (Synthetic peptide) [HER2/neu peptide, position 411, 9 amino acids] | 0.0003 ratio (IC50 of standard peptide / IC50 of test peptide)
B11 | 0.0018 ratio (IC50 of standard peptide / IC50 of test peptide)
YLSTDVGSCT (Synthetic peptide) [HER2/neu peptide, position 303, 10 amino acids] | 0.0002 ratio (IC50 of standard peptide / IC50 of test peptide)
B12 | 0.0001 ratio (IC50 of standard peptide / IC50 of test peptide)
B13 | 0.0027 ratio (IC50 of standard peptide / IC50 of test peptide)
B14 | 0.0005 ratio (IC50 of standard peptide / IC50 of test peptide)
VVGILLVVVL (Synthetic peptide) [HER2/neu peptide, position 658, 10 amino acids] | 0.0009 ratio (IC50 of standard peptide / IC50 of test peptide)
VVVLGVVFGI (Synthetic peptide) [HER2/neu peptide, position 664, 10 amino acids] | 0.0032 ratio (IC50 of standard peptide / IC50 of test peptide)
B15 | 0.0001 ratio (IC50 of standard peptide / IC50 of test peptide)
B16 | 0.0001 ratio (IC50 of standard peptide / IC50 of test peptide)

biological target: T2, HLA-A*0301 (human); test: competitive inhibition of 125I-labelled standard peptide binding to purified HLA-A*0301, gel filtration; standard 941.12 [..] (11 nM)
T2 construct: also called HLA-A3

Binder | relative binding ratio (IC50 of standard peptide / IC50 of test peptide) [ratio]
ILKETELRK (Synthetic peptide) [HER2/neu peptide, position 714, 9 amino acids] | 0.019
B17 | 0.0035
ILIKRRQQK (T0001 prints T at residue 673 (FGTLIK)) [HER2/neu peptide, position 673, 9 amino acids] | 0.38
B18 | 0.037
KIPVAIKVLR (Synthetic peptide) [HER2/neu peptide, position 747, 10 amino acids] | 0.0009
KIRKYTMR (Synthetic peptide) [HER2/neu peptide, position 681, 8 amino acids] | 0.001
LACHQLCAR (Synthetic peptide) [HER2/neu peptide, position 509, 9 amino acids] | -0.0002
KVLRENTSPK (Synthetic peptide) [HER2/neu peptide, position 753, 10 amino acids] | 0.38
B19 | 0.28
HSCVDLDDK (Synthetic peptide) [HER2/neu peptide, position 632, 9 amino acids] | -0.0002

biological target: T3, HLA-A*0301 (human); test: inhibition of 125I-labelled probe peptide binding to purified HLA-A*0301, gel filtration; ratio to standard peptide 941.12 [..] (11 nM)
T3 construct: also called HLA-A3

Binder | relative binding ratio (IC50 of standard peptide / IC50 of test peptide)
LLNWCMQIAK (Synthetic peptide) [HER2/neu peptide, position 822, 10 amino acids] | 0.14
B20 | 0.0058
B21 | 0.0002
B22 | 0.0002
B23 | 0.0017
B24 | 0.0002
MALESILRRR (Synthetic peptide) [HER2/neu peptide, position 889, 10 amino acids] | 0.0011
B25 | 0.0002
B26 | 0.0003
B27 | 0.0003
B28 | 0.0012
B29 | 0.004
B30 | 0.0002
